Assay results from patent US20160272683A1 (Novo Nordisk, published 2016).
Values belong to the binder of their own block, whether it stands above or below them. Numbered stars: 1 amine (or outer) side, 2 acyl side, 3 side chain; on linkers, the order of the positions; unused ones are H or OH. Side chains are listed from the residue outwards. Ends that are not written are not given here. * marks the point of attachment. C20 diacid = O=C(O)CCCCCCCCCCCCCCCCCCC(=O)*; C18 diacid = O=C(O)CCCCCCCCCCCCCCCCC(=O)*; γGlu = O=C(O)[C@H](CCC(=O)[*:2])N[*:1]; AEEA = NCCOCCOCC(=O)O

What was measured:
[1] = target: T1, human amylin receptor (amylin 3(a) receptor: human calcitonin receptor with RAMP-3) (human, UniProt P30988 25-474; O60896 24-148, limits assumed); test: SPA competition vs 125I-rat amylin, membranes with human CTR + RAMP-3 (Assay V)
T1 construct: whole, on cells; Assay V: membranes of the Amylin 3(a)/CRE-luc BHK cells on SPA beads; also called hAmylin-R
T1 sequence (looked up) 1: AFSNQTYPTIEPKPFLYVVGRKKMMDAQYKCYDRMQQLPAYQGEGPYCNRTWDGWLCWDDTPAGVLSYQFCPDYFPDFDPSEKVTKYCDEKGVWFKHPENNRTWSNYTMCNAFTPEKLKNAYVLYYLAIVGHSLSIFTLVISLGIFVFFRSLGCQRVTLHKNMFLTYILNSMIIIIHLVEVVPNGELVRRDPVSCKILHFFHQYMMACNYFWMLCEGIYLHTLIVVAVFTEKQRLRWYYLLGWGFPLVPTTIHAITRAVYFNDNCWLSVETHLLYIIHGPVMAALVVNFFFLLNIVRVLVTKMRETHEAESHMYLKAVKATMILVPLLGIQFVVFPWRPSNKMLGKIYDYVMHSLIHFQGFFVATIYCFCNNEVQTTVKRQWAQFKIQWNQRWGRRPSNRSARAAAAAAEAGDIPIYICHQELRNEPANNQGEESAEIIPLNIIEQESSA
T1 sequence (looked up) 2: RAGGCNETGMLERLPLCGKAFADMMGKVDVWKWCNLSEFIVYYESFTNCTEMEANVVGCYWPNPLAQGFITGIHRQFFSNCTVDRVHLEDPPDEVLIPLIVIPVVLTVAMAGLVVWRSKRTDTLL
Experimental: The binding assay was performed using scintillation proximity assay (SPA) beads (RPNQ0001) from PerkinElmer and cell membranes from the Amylin 3(a)/CRE-luc cells (as described in Assay (II)) were used. Membranes were prepared in the following way; the cells were rinsed with PBS and incubated with Versene for approximately 5 min before harvesting. The cells were flushed with PBS and the cell-suspension was centrifuged for 5 min at 1000 rpm. […] The resulting pellet was resuspended in buffer 2 and protein concentration was tested (BCA protein Assay, Pierce). The homogenate was kept cold during the whole procedure. The membranes were kept at −80° C. until use. The assay was performed in a 384 well Optiplate (PerkinElmer) in a total volume of 40 ul. Membranes were mixed with SPA beads. Final concentration of membranes 35 ng/μL final and SPA beads was 0.05 mg/well. Test-compounds were dissolved in DMSO and further diluted in assay buffer (50 mM Hepes, pH 7.4, 1 mM CaCl2, 5 mM MgCl2, 0.1% OA and 0.02% Tween20). […] Samples were analyzed on TopCounter™ (Packard). The IC₅₀ was calculated using (one site binding competition analysis) GraphPad Prism5 as a measure of receptor affinity.

[2] = target: T2, human calcitonin receptor (human, UniProt P30988 25-474); test: SPA competition vs 125I-calcitonin, membranes with human CTR (Assay VII)
T2 construct: whole, on cells; Assay VII: membranes on SPA beads; also called hCT-R; hCTR
T2 sequence (looked up): T1 sequence (looked up) 1
Experimental: The binding assay was performed using scintillation proximity assay (SPA) beads (RPNQ0001) from PerkinElmer® and cell membranes prepared from a BHK tk'ts 13 cell line was stably transfected with the human calcitonin receptor and a CRE-responsive luciferase reporter gene. Membranes were prepared in the following way; the cells were rinsed with PBS and incubated with Versene for approximately 5 min before harvesting. The cells were flushed with PBS and the cell-suspension was centrifuged for 5 min at 1000 rpm.
EDTA (pH 7.4, buffer 2). The resulting pellet was resuspended in buffer 2 and protein concentration was tested (BCA protein Assay, Pierce). The homogenate was kept cold during the whole procedure. The membranes were kept at −80° C. until use. Assay was performed in a 384 well Optiplate (PerkinElmer®) in a total volume of 40 ul. Membranes were mixed with SPA beads. Final concentration of membranes 35 ng/μL final and Final concentration of SPA beads was 0.05 mg/well. Test-compounds were dissolved in DMSO and further diluted in assay buffer (50 mM Hepes, pH 7.4, 1 mM CaCl2, 5 mM MgCl2, 0.1% OA and 0.02% Tween20). […] Samples were analyzed on TopCounter™ (Packard). The IC₅₀ was calculated using (one site binding competition analysis) GraphPad Prism5 as a measure of receptor affinity.

IC50 [1]: 0.225 nM | IC50 [2]: 0.193 nM
B3: [N-terminal(C20 diacid-gGlu), des1, 4G, 8L, 9V, 15Q, 21Q, 23Y, 30S, 31Q, 32T, 33Y]mimylin (peptide)
peptide: {C20 diacid-γGlu}-ASGLSTLVLGRLSQELHELQTYPRTETGSQTY-NH2
SMILES: CC(C)C[C@H](NC(=O)CNC(=O)[C@H](CO)NC(=O)[C@H](C)NC(=O)CC[C@H](NC(=O)CCCCCCCCCCCCCCCCCCC(=O)O)C(=O)O)C(=O)N[C@@H](CO)C(=O)N[C@H](C(=O)N[C@@H](CC(C)C)C(=O)N[C@H](C(=O)N[C@@H](CC(C)C)C(=O)NCC(=O)N[C@@H](CCCNC(=N)N)C(=O)N[C@@H](CC(C)C)C(=O)N[C@@H](CO)C(=O)N[C@@H](CCC(N)=O)C(=O)N[C@@H](CCC(=O)O)C(=O)N[C@@H](CC(C)C)C(=O)N[C@@H](Cc1c[nH]cn1)C(=O)N[C@@H](CCC(=O)O)C(=O)N[C@@H](CC(C)C)C(=O)N[C@@H](CCC(N)=O)C(=O)N[C@H](C(=O)N[C@@H](Cc1ccc(O)cc1)C(=O)N1CCC[C@H]1C(=O)N[C@@H](CCCNC(=N)N)C(=O)N[C@H](C(=O)N[C@@H](CCC(=O)O)C(=O)N[C@H](C(=O)NCC(=O)N[C@@H](CO)C(=O)N[C@@H](CCC(N)=O)C(=O)N[C@H](C(=O)N[C@@H](Cc1ccc(O)cc1)C(N)=O)[C@@H](C)O)[C@@H](C)O)[C@@H](C)O)[C@@H](C)O)C(C)C)[C@@H](C)O
notes: mimylin derivative; des1 = residue 1 deleted

IC50 [1]: 0.114 nM | IC50 [2]: 0.215 nM
B4: [des1, 16K(C20 diacid-gGlu), 30S, 31G]mimylin (peptide)
peptide: ASELSTAALGRLSAK([γGlu-C20 diacid])LHELATLPRTETGSGSP-NH2
modifications: N-terminus assumed
SMILES: CC(C)C[C@H](NC(=O)[C@H](C)NC(=O)[C@H](C)NC(=O)[C@@H](NC(=O)[C@H](CO)NC(=O)[C@H](CC(C)C)NC(=O)[C@H](CCC(=O)O)NC(=O)[C@H](CO)NC(=O)[C@H](C)N)[C@@H](C)O)C(=O)NCC(=O)N[C@@H](CCCNC(=N)N)C(=O)N[C@@H](CC(C)C)C(=O)N[C@@H](CO)C(=O)N[C@@H](C)C(=O)N[C@@H](CCCCNC(=O)CC[C@H](NC(=O)CCCCCCCCCCCCCCCCCCC(=O)O)C(=O)O)C(=O)N[C@@H](CC(C)C)C(=O)N[C@@H](Cc1c[nH]cn1)C(=O)N[C@@H](CCC(=O)O)C(=O)N[C@@H](CC(C)C)C(=O)N[C@@H](C)C(=O)N[C@H](C(=O)N[C@@H](CC(C)C)C(=O)N1CCC[C@H]1C(=O)N[C@@H](CCCNC(=N)N)C(=O)N[C@H](C(=O)N[C@@H](CCC(=O)O)C(=O)N[C@H](C(=O)NCC(=O)N[C@@H](CO)C(=O)NCC(=O)N[C@@H](CO)C(=O)N1CCC[C@H]1C(N)=O)[C@@H](C)O)[C@@H](C)O)[C@@H](C)O
notes: mimylin derivative; des1 = residue 1 deleted; also called Ex. #53; 53

IC50 [1]: 0.442 nM | IC50 [2]: 0.085 nM
B5: [des1, 19K(C20 diacid-gGlu), 30S, 31G]mimylin (peptide)
peptide: ASELSTAALGRLSAELHK([γGlu-C20 diacid])LATLPRTETGSGSP-NH2
modifications: N-terminus assumed
SMILES: CC(C)C[C@H](NC(=O)[C@H](C)NC(=O)[C@H](C)NC(=O)[C@@H](NC(=O)[C@H](CO)NC(=O)[C@H](CC(C)C)NC(=O)[C@H](CCC(=O)O)NC(=O)[C@H](CO)NC(=O)[C@H](C)N)[C@@H](C)O)C(=O)NCC(=O)N[C@@H](CCCNC(=N)N)C(=O)N[C@@H](CC(C)C)C(=O)N[C@@H](CO)C(=O)N[C@@H](C)C(=O)N[C@@H](CCC(=O)O)C(=O)N[C@@H](CC(C)C)C(=O)N[C@@H](Cc1c[nH]cn1)C(=O)N[C@@H](CCCCNC(=O)CC[C@H](NC(=O)CCCCCCCCCCCCCCCCCCC(=O)O)C(=O)O)C(=O)N[C@@H](CC(C)C)C(=O)N[C@@H](C)C(=O)N[C@H](C(=O)N[C@@H](CC(C)C)C(=O)N1CCC[C@H]1C(=O)N[C@@H](CCCNC(=N)N)C(=O)N[C@H](C(=O)N[C@@H](CCC(=O)O)C(=O)N[C@H](C(=O)NCC(=O)N[C@@H](CO)C(=O)NCC(=O)N[C@@H](CO)C(=O)N1CCC[C@H]1C(N)=O)[C@@H](C)O)[C@@H](C)O)[C@@H](C)O
notes: mimylin derivative; des1 = residue 1 deleted; also called Ex. #54; 54

Further lines, the binder ahead of its results:

B1: [N-terminal(C20 diacid-gGlu-2xOEG), des1, 4G, 9V, 15Q, 21Q, 23Y, 30S, 31G, 32T, 33Y]mimylin (peptide)
peptide: {C20 diacid-γGlu-AEEA-AEEA}-ASGLSTAVLGRLSQELHELQTYPRTETGSGTY-NH2
SMILES: CC(C)C[C@H](NC(=O)CNC(=O)[C@H](CO)NC(=O)[C@H](C)NC(=O)COCCOCCNC(=O)COCCOCCNC(=O)CC[C@H](NC(=O)CCCCCCCCCCCCCCCCCCC(=O)O)C(=O)O)C(=O)N[C@@H](CO)C(=O)N[C@H](C(=O)N[C@@H](C)C(=O)N[C@H](C(=O)N[C@@H](CC(C)C)C(=O)NCC(=O)N[C@@H](CCCNC(=N)N)C(=O)N[C@@H](CC(C)C)C(=O)N[C@@H](CO)C(=O)N[C@@H](CCC(N)=O)C(=O)N[C@@H](CCC(=O)O)C(=O)N[C@@H](CC(C)C)C(=O)N[C@@H](Cc1c[nH]cn1)C(=O)N[C@@H](CCC(=O)O)C(=O)N[C@@H](CC(C)C)C(=O)N[C@@H](CCC(N)=O)C(=O)N[C@H](C(=O)N[C@@H](Cc1ccc(O)cc1)C(=O)N1CCC[C@H]1C(=O)N[C@@H](CCCNC(=N)N)C(=O)N[C@H](C(=O)N[C@@H](CCC(=O)O)C(=O)N[C@H](C(=O)NCC(=O)N[C@@H](CO)C(=O)NCC(=O)N[C@H](C(=O)N[C@@H](Cc1ccc(O)cc1)C(N)=O)[C@@H](C)O)[C@@H](C)O)[C@@H](C)O)[C@@H](C)O)C(C)C)[C@@H](C)O
notes: mimylin derivative; des1 = residue 1 deleted; also called Ex. #120; 120
IC50 [1]: 0.166 nM | IC50 [2]: 0.091 nM

B2: [N-terminal(C18 diacid-gGlu), des1, 4G, 15Q, 21Q, 23Y, 30S, 31G, 32T, 33Y]mimylin (peptide)
peptide: {C18 diacid-γGlu}-ASGLSTAALGRLSQELHELQTYPRTETGSGTY-NH2
SMILES: CC(C)C[C@H](NC(=O)CNC(=O)[C@H](CO)NC(=O)[C@H](C)NC(=O)CC[C@H](NC(=O)CCCCCCCCCCCCCCCCC(=O)O)C(=O)O)C(=O)N[C@@H](CO)C(=O)N[C@H](C(=O)N[C@@H](C)C(=O)N[C@@H](C)C(=O)N[C@@H](CC(C)C)C(=O)NCC(=O)N[C@@H](CCCNC(=N)N)C(=O)N[C@@H](CC(C)C)C(=O)N[C@@H](CO)C(=O)N[C@@H](CCC(N)=O)C(=O)N[C@@H](CCC(=O)O)C(=O)N[C@@H](CC(C)C)C(=O)N[C@@H](Cc1c[nH]cn1)C(=O)N[C@@H](CCC(=O)O)C(=O)N[C@@H](CC(C)C)C(=O)N[C@@H](CCC(N)=O)C(=O)N[C@H](C(=O)N[C@@H](Cc1ccc(O)cc1)C(=O)N1CCC[C@H]1C(=O)N[C@@H](CCCNC(=N)N)C(=O)N[C@H](C(=O)N[C@@H](CCC(=O)O)C(=O)N[C@H](C(=O)NCC(=O)N[C@@H](CO)C(=O)NCC(=O)N[C@H](C(=O)N[C@@H](Cc1ccc(O)cc1)C(N)=O)[C@@H](C)O)[C@@H](C)O)[C@@H](C)O)[C@@H](C)O)[C@@H](C)O
notes: mimylin derivative; des1 = residue 1 deleted; also called Ex. #110; 110
IC50 [1]: 0.122 nM | IC50 [2]: 0.057 nM

B6: [N-terminal(C18 diacid-gGlu), des1, 6T, 9V, 14T, 21E, 30T, 31G, 32T]mimylin (peptide)
peptide: {C18 diacid-γGlu}-ASELTTAVLGRLTAELHELETLPRTETGTGTP-NH2
SMILES: CC(C)C[C@H](NC(=O)[C@H](CCC(=O)O)NC(=O)[C@H](C)NC(=O)[C@@H](NC(=O)[C@H](CC(C)C)NC(=O)[C@H](CCCNC(=N)N)NC(=O)CNC(=O)[C@H](CC(C)C)NC(=O)[C@@H](NC(=O)[C@H](C)NC(=O)[C@@H](NC(=O)[C@@H](NC(=O)[C@H](CC(C)C)NC(=O)[C@H](CCC(=O)O)NC(=O)[C@H](CO)NC(=O)[C@H](C)NC(=O)CC[C@H](NC(=O)CCCCCCCCCCCCCCCCC(=O)O)C(=O)O)[C@@H](C)O)[C@@H](C)O)C(C)C)[C@@H](C)O)C(=O)N[C@@H](Cc1c[nH]cn1)C(=O)N[C@@H](CCC(=O)O)C(=O)N[C@@H](CC(C)C)C(=O)N[C@@H](CCC(=O)O)C(=O)N[C@H](C(=O)N[C@@H](CC(C)C)C(=O)N1CCC[C@H]1C(=O)N[C@@H](CCCNC(=N)N)C(=O)N[C@H](C(=O)N[C@@H](CCC(=O)O)C(=O)N[C@H](C(=O)NCC(=O)N[C@H](C(=O)NCC(=O)N[C@H](C(=O)N1CCC[C@H]1C(N)=O)[C@@H](C)O)[C@@H](C)O)[C@@H](C)O)[C@@H](C)O)[C@@H](C)O
notes: as for B3
IC50 [1]: 0.309 nM | IC50 [2]: 0.222 nM
